Blank lines part the entries; values can stand above or below the binder they belong to. Bridge positions count the residues as written; N and C are the ends. Ends that are not written are not given here.
B2: recombinant His-tag CRKL (rCRKL) (other)
chain: MSSARFDSSDRSAWYMGPVSRQEAQTRLQGQRHGMFLVRDSSTCPGDYVLSVSENSRVSHYIINSLPNRRFKIGDQEFDHLPALLEFYKIHYLDTTTLIEPAPRYPSPPMGSVSAPNLPTAEDNLEYVRTLYDFPGNDAEDLPFKKGEILVIIEKPEEQWWSARNKDGRVGMIPVPYVEKLVRSSPHGKHGNRNSNSYGIPEPAHAYAQPQTTTPLPAVSGSPGAAITPLPSTQNGPVFAKAIQKRVPCAYDKTALALEVGDIVKVTRMNINGQWEGEVNGRKGLFPFTHVKIFDPQNPDENE
notes: Open reading frame of full-length CRKL cDNA cloned in pET28a, expressed in BL21; also called recombinant CRKL; rCKRL protein; not shown: His-tag from pET28a vector
B3: β3 integrin of DU145 cells (receptor, human, UniProt P05106 27-788, looked up)
chain: GPNICTTRGVSSCQQCLAVSPMCAWCSDEALPLGSPRCDLKENLLKDNCAPESIEFPVSEARVLEDRPLSDKGSGDSSQVTQVSPQRIALRLRPDDSKNFSIQVRQVEDYPVDIYYLMDLSYSMKDDLWSIQNLGTKLATQMRKLTSNLRIGFGAFVDKPVSPYMYISPPEALENPCYDMKTTCLPMFGYKHVLTLTDQVTRFNEEVKKQSVSRNRDAPEGGFDAIMQATVCDEKIGWRNDASHLLVFTTDAKTHIALDGRLAGIVQPNDGQCHVGSDNHYSASTTMDYPSLGLMTEKLSQKNINLIFAVTENVVNLYQNYSELIPGTTVGVLSMDSSNVLQLIVDAYGKIRSKVELEVRDLPEELSLSFNATCLNNEVIPGLKSCMGLKIGDTVSFSIEAKVRGCPQEKEKSFTIKPVGFKDSLIVQVTFDCDCACQAQAEPNSHRCNNGNGTFECGVCRCGPGWLGSQCECSEEDYRPSQQDECSPREGQPVCSQRGECLCGQCVCHSSDFGKITGKYCECDDFSCVRYKGEMCSGHGQCSCGDCLCDSDWTGYYCNCTTRTDTCMSSNGLLCSGRGKCECGSCVCIQPGSYGDTCEKCPTCPDACTFKKECVECKKFDRGALHDENTCNRYCRDEIESVKELKDTGKDAVNCTYKNEDDCVVRFQYYEDSSGKSILYVVEEPECPKGPDILVVLLSVMGAILLIGLAALLIWKLLITIHDRKEFAKFEEERARAKWDTANNPLYKEATSTFTNITYRGT
notes: whole, on cells; Control of the co-immunoprecipitation; also called other integrins (anti-β3)
B4: IL11 receptor of DU145 cells (receptor, human, UniProt Q14626 23-422, looked up)
chain: SSPCPQAWGPPGVQYGQPGRSVKLCCPGVTAGDPVSWFRDGEPKLLQGPDSGLGHELVLAQADSTDEGTYICQTLDGALGGTVTLQLGYPPARPVVSCQAADYENFSCTWSPSQISGLPTRYLTSYRKKTVLGADSQRRSPSTGPWPCPQDPLGAARCVVHGAEFWSQYRINVTEVNPLGASTRLLDVSLQSILRPDPPQGLRVESVPGYPRRLRASWTYPASWPCQPHFLLKFRLQYRPAQHPAWSTVEPAGLEEVITDAVAGLPHAVRVSARDFLDAGTWSTWSPEAWGTPSTGTIPKEIPAWGQLHTQPEVEPQVDSPAPPRPSLQPHPRLLDHRDSVEQVAVLASLGILSFLGLVAGALALGLWLRLRRGGKDGSPKPGFLASVIPVDRRPGAPNL
notes: whole, on cells; Unrelated transmembrane receptor, control of the co-immunoprecipitation

Legend:
[1] = target: B3; experiment: reciprocal co-immunoprecipitation, DU145 membrane fractions
[2] = target: T1, β1 integrin of DU145 cells (membrane fraction / cell surface) (human, UniProt P05556 21-798); experiment: as above
T1 construct: Native β1 chain of human DU145 cells

[3] = target: B4; experiment: as above
[4] = target: T2, β5 integrin of DU145 cells (human, UniProt P18084 24-799); experiment: as above
T2 construct: whole, on cells; Control of the co-immunoprecipitation; also called other integrins (anti-β5)

[5] = target: T3, αvβ5 integrin (Chemicon) (UniProt P06756 31-1048; P18084 24-799); experiment: CRKL on wells coated with integrin at 1 µg/well, anti-CRKL detection (FIG. 5)
T3 construct: Bought protein coated at 1 µg/well; also called control integrin
Description: (§1) Phage binding assays on purified proteins were carried out as described (Giordano et al. 2001). Recombinant proteins were coated on microtiter wells as previous described (Cardo-Vila et al., 2003; Smith and Scott, 1993). Briefly, proteins were immobilized on microtiter wells overnight at 4° C. 50 μl of 1 μg/ml in PBS. Wells were washed twice with PBS, blocked with PBS containing 3% BSA for 2 hours at room temperature, and incubated with 10⁹ T.U. wild-type tumor-homing phage ([…]; SEQ ID NO:1), scrambled phage ([…] (SEQ ID NO:26), […] (SEQ ID NO:27), […] (SEQ ID NO:29), […] (SEQ ID NO:30)), mutant phage ([…] (SEQ ID NO:25), […] (SEQ ID NO:28)), PSI-derived cyclic phage ([…]; SEQ ID NO:23) or fd-tet phage in 50 μl of PBS containing 1.5% BSA. After 1 hour at room temperature, wells were washed ten times with PBS and phage were recovered by bacterial infection. ELISA with polyclonal anti-CKRL confirmed the presence and concentration of the CKRL recombinant proteins on the wells. To test the binding of the tumor-homing phage to SH3 containing proteins, microtiter-wells were coated at 4° C. overnight with 250 μg/ml of recombinant gst-SH3 domains (CKRL-D1, CKRL-D2, grb2-D1, grb2-D2, Lyn, src; Pronomics), rCKRL protein, and negative controls gst or BSA. […] After 3 hours, binding of CKRL to integrins was detected by using an anti-CKRL antibody followed by an HRP-conjugated anti-rabbit IgG. […]

[6] = target: T4, αvβ3 integrin (Chemicon) (UniProt P06756 31-1048; P05106 27-788); experiment: as above
T4 construct: Bought protein coated at 1 µg/well; also called control integrin
Description: as §1

[7] = target: B2; experiment: ELISA, His-tag protein on coated synthetic peptide (FIG. 3A)
Description: (§2) Synthetic tumor-homing peptide ([…]; SEQ ID NO:1) or PSI-derived peptide ([…]; SEQ ID NO:23) were coated on microtiter plates followed by blocking, and washing. The following recombinant His-tag proteins were added to the coated plates: rCRKL, rCRKL-SH2 domain, rCRKL-SH3 (N) domain, and rCRKL-SH3 (C) domain. An unrelated control protein (α2-Heremans-Schmid glycoprotein; AHSG) served as a negative control. The mixtures were incubated, washed, and labeled with the appropriate antibodies. Secondary antibodies conjugated to horse-radish peroxidase (HRP) were added followed by adding TMB substrate (Calbiochem), and analyzed by an automated ELISA reader (Bio-Tek). To determine the inhibitory activity of the tumor-homing peptide, the PSI-derived peptide, or the phage clone displaying the corresponding tumor-homing peptide were incubated with the rCRKL-SH3 (C) domain. Unrelated cyclic peptide sequences and insertless phage (fd-tet) served as negative controls. The admixtures were incubated and added to wells coated with the tumor-homing peptide. After incubation, the wells were washed, labeled with the appropriate antibodies, and processed as above.

[8] = target: B2; experiment: ELISA, His-tag protein on coated synthetic peptide
Description: as §2

T1 sequence (P05556 21-798 limits assumed): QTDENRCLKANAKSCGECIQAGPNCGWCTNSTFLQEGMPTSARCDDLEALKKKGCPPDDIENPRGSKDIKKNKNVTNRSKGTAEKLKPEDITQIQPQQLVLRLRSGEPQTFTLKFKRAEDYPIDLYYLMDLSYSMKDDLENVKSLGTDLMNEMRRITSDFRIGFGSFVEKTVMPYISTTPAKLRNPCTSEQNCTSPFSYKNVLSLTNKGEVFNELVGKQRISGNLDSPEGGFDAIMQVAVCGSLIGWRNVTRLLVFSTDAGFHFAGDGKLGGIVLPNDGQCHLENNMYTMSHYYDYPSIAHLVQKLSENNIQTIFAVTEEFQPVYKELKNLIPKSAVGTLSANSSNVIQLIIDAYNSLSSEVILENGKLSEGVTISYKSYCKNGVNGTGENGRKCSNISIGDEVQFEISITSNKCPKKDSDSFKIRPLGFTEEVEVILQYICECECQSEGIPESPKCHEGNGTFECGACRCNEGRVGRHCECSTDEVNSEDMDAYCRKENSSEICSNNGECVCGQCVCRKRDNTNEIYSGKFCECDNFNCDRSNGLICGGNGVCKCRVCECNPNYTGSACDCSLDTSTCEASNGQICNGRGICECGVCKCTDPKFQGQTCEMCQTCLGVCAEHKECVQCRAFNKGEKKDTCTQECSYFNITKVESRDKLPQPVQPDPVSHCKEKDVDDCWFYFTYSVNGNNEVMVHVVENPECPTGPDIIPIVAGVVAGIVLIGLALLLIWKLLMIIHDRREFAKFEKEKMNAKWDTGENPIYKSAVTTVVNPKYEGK
T4 sequence (P06756 31-1048, one chain of several): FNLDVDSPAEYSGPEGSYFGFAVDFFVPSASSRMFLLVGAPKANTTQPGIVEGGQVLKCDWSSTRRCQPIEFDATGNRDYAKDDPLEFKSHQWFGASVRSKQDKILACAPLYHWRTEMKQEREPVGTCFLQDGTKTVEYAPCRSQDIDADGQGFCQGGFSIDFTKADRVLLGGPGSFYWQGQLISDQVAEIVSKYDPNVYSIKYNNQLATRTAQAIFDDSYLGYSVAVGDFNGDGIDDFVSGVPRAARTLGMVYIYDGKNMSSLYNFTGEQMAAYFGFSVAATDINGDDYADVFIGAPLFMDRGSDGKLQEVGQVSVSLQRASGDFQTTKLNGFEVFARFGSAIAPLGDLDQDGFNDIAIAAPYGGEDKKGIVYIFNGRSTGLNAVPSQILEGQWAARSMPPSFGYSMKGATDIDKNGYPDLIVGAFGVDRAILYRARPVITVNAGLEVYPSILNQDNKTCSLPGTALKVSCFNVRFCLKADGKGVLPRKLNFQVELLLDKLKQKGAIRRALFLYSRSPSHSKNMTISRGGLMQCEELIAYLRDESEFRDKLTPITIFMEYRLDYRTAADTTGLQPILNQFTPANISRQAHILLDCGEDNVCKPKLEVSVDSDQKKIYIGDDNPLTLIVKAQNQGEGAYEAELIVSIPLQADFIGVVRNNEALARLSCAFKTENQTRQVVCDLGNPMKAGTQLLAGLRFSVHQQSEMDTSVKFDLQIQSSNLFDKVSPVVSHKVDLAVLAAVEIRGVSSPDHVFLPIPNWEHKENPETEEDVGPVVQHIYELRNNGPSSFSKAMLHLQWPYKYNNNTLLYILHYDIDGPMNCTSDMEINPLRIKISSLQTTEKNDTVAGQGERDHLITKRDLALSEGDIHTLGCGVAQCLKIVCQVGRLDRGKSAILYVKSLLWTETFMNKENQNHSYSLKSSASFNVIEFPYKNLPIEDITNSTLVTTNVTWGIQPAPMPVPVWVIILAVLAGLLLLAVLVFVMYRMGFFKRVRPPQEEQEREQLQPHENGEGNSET
T3 sequence (P06756 31-1048, chain 1 of 2): as the sequence (P06756 31-1048, one chain of several) above
T3 sequence (P18084 24-799, chain 2 of 2): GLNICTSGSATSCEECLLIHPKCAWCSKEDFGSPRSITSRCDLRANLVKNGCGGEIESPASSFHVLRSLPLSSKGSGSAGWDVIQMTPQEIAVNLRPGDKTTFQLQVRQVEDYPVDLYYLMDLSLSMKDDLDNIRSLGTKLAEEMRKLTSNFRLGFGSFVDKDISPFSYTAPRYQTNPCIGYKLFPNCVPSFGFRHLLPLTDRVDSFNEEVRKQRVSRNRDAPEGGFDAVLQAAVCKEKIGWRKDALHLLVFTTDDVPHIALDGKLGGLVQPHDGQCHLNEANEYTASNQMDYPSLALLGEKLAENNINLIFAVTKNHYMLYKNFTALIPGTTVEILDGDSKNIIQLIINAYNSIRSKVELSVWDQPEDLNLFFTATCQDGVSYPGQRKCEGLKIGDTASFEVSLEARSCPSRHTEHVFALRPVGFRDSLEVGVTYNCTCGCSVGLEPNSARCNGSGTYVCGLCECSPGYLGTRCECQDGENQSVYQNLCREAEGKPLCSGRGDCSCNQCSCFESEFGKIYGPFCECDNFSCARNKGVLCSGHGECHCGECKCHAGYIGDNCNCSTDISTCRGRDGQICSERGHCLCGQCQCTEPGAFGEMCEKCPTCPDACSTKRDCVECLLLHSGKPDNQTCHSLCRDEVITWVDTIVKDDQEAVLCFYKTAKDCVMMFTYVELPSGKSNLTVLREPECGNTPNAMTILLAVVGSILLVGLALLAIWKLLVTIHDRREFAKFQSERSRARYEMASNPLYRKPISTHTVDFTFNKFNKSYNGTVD
T2 sequence (P18084 24-799): as the sequence (P18084 24-799, chain 2 of 2) above

Binder: B2
- binding result [5]: no binding
- binding result [6]: no binding

Binder: B3
- binding result [2]: no binding

Binder: B4
- binding result [2]: no binding

Next, values leading:

- binding result [1]: no binding
- binding result [2]: binds
- binding result [3]: no binding
- binding result [4]: no binding
B1: CRKL of DU145 cells (cell extract, membrane fraction, cell surface or serum-free condition medium) (other)
chain: MSSARFDSSDRSAWYMGPVSRQEAQTRLQGQRHGMFLVRDSSTCPGDYVLSVSENSRVSHYIINSLPNRRFKIGDQEFDHLPALLEFYKIHYLDTTTLIEPAPRYPSPPMGSVSAPNLPTAEDNLEYVRTLYDFPGNDAEDLPFKKGEILVIIEKPEEQWWSARNKDGRVGMIPVPYVEKLVRSSPHGKHGNRNSNSYGIPEPAHAYAQPQTTTPLPAVSGSPGAAITPLPSTQNGPVFAKAIQKRVPCAYDKTALALEVGDIVKVTRMNINGQWEGEVNGRKGLFPFTHVKIFDPQNPDENE
notes: Native protein from human DU145 prostate cancer cells; also called secreted CRKL; extracellular CRKL

- binding result [7]: binds
B5: synthetic tumor-homing peptide YRCTLNSPFFWEDMTHECHA (SEQ ID NO:1) (peptide)
peptide: YRCTLNSPFFWEDMTHECHA
modifications: disulfide 3-18 (inferred)
notes: also called PSI domain-mimic peptide

- binding result [8]: binds
B6: synthetic PSI-derived peptide NSTFLQEGMPTSA (SEQ ID NO:23) (peptide)
peptide: NSTFLQEGMPTSA
notes: also called β1 integrin PSI-derived peptide

— US20110189095A1 (University of Texas, published 2011)
